Here are results for 23 molecules from patent US20230303695A1 (SHANGHAI XBH BIOTECHNOLOGY, published 2023).

Changes are numbered by the printed parent chain. Names and notes keep the numbering of the source.

First the molecules themselves.
T1: recombinant human IGSF8 extracellular domain tagged by a human Fc region (IGSF8-hFc) (human, UniProt Q969P0 28-579, biotin label in Examples 17, 18 and 28 (site not given))
T1 construct: also called IGSF8-Fc fusion protein; IGSF8-hFc-biotin; not shown: human Fc region
T1 sequence: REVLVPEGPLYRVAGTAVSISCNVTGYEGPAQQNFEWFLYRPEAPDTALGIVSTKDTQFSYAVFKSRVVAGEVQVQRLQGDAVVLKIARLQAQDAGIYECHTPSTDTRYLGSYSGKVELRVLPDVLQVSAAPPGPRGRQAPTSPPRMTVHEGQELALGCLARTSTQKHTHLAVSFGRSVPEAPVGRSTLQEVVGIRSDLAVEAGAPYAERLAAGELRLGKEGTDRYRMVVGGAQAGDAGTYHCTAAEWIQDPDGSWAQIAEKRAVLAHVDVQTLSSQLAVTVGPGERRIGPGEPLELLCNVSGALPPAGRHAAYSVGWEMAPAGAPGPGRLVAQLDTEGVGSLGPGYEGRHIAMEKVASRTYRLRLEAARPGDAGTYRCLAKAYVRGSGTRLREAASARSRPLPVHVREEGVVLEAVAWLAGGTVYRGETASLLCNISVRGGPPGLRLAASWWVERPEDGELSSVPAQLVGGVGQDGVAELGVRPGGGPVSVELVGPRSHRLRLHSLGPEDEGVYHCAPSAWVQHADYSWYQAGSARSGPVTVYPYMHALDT

B1: L2VL-S52V (antibody, V domains shown)
VH: EVQLVESGGGLEQPGGSLRLSCAGSGFTFRDYAMTWVRQAPGKGLEWVSSISGSGGNTYYADSVKGRFTISRDNSKNTLYLQMNSLRAEDTAIYYCARGEYSSGWPSWFDPWGQGTLVTVSS
VL: EIVLTQSPSSLSASVGDRVTISCRASRTVGTFLNWYQQRPGKPPQALILGVVILEGGVSSRFSGAGSGTEFSLTISSLQPEDIGTYYCQQSHDVPRTFGQGTKVDLR
B2: L1-02 (antibody, V domains shown)
VH: QVQLVESGGGVVQPGRSLRLSCAASGFTFSTYGMHWVRQAPGKGLEWVAVIWDDGSYKYYGDSVKGRFTISRDNSKNTLYLQMNSLRAEDTAVYYCARDGSGWGYAFDIWGQGTMVTVSS
VL: DIQLTQSPSSLSASVGDRVTITCQASQDISKPLNWYQHKPGKAPNPLVFDAANLETGVPPRFSATGSGTDFSLTITSLQPEDFATYYCQQYDSFPYTFGQGTRLDIK
B3: L1-14 (antibody, V domains shown)
VH: B2 VH
VL: B2 VL with K31E, P32Y, D50S, A51Q, A52P
B4: L1VH-D54T (antibody, V domains shown)
VH: B2 VH with D54T
VL: B2 VL with K31E, P32Y
B5: L1-06 (antibody, V domains shown)
VH: B2 VH
VL: B2 VL with S30G, K31P, P32W
B6: L1VH-D99N (antibody, V domains shown)
VH: B2 VH with D99N
VL: B2 VL with K31E, P32Y
B7: L1-08 (antibody, V domains shown)
VH: B2 VH
VL: B2 VL with S30G, K31A, P32Y
B8: L1-10 (antibody, V domains shown)
VH: B2 VH
VL: B2 VL with K31E, P32Y, D50T, A51S
B9: L1-15 (antibody, V domains shown)
VH: B2 VH
VL: B2 VL with S30M, P32T
B10: L1VL-Y91F (antibody, V domains shown)
VH: B2 VH
VL: B2 VL with K31E, P32Y, Y91F
B11: L1VL-Q24H (antibody, V domains shown)
VH: B2 VH
VL: B2 VL with Q24H, K31E, P32Y
B12: L1VL-P46L (antibody, V domains shown)
VH: B2 VH
VL: B2 VL with K31E, P32Y, P46L
B13: L1VH-D53Y (antibody, V domains shown)
VH: B2 VH with D53Y
VL: B2 VL with K31E, P32Y
B14: L1-13 (antibody, V domains shown)
VH: B2 VH
VL: B2 VL with K31E, P32Y, A52P
B15: L1-03 (antibody, V domains shown)
VH: B2 VH
VL: B2 VL with K31E, P32Y, D50R, A51S, A52P
B16: L1VL-V48D (antibody, V domains shown)
VH: B2 VH
VL: B2 VL with K31E, P32Y, V48D
B17: L1-11 (antibody, V domains shown)
VH: B2 VH
VL: B2 VL with S30E, K31W, P32A
B18: L1-04 (antibody, V domains shown)
VH: B2 VH
VL: B2 VL with K31E, P32Y, D50G, A51S, A52P
B19: L1VH-W52L (antibody, V domains shown)
VH: B2 VH with W52L
VL: B2 VL with K31E, P32Y
notes: mutant of the L1 antibody
B20: L1-07 (antibody, V domains shown)
VH: B2 VH
VL: B2 VL with S30E, K31W, P32W
B21: L1-05 (antibody, V domains shown)
VH: B2 VH
VL: B2 VL with S30T, P32G
B22: L1-12 (antibody, V domains shown)
VH: B2 VH
VL: B2 VL with K31E, P32Y, D50G, A52D
B23: L1-09 (antibody, V domains shown)
VH: B2 VH
VL: B2 VL with K31E, P32Y, D50A, A51R, A52D

In this test the target is T1, recombinant human IGSF8 extracellular …. In words: SPR, Ab captured. On the procedure: The binding affinities of the L1 and L2 antibodies to IGSF8 recombinant protein were determined by surface plasmon resonance (SPR). Briefly, anti-human Fab antibody was imobilized on acarboxyl-derivatized SPR chip surface, and the antibodies were captured on the resulting surface at 5 μg/ml for 30 seconds.
(SPR reads the build-up and loss of mass on a sensor chip optically.)
The term Kd denotes the free concentration of one partner at which half of the binding sites on the other are occupied at equilibrium, for simple one-to-one binding. One may read the koff as a measure of how fast the partners let go of each other. As usually defined, the kon is the rate constant with which the complex forms. For the molecule B1, the Kd stood at 64.5 nM, the koff was determined as 0.000806 s⁻¹ and the kon is 12500 M⁻¹ s⁻¹.
As to B2, the Kd worked out at 4.22 nM, the koff amounted to 0.00127 s⁻¹ and the kon turned out to be 300000 M⁻¹ s⁻¹.
For the molecule B3, the Kd was 6.41 nM, the koff stood at 0.00244 s⁻¹ and the kon turned out to be 381000 M⁻¹ s⁻¹.
With B4, the Kd was 571 nM, the koff was determined as 0.00131 s⁻¹ and the kon was determined as 2290 M⁻¹ s⁻¹.
For the molecule B5, the Kd worked out at 2.3 nM, the koff turned out to be 0.00104 s⁻¹ and the kon was found to be 453000 M⁻¹ s⁻¹.
B6: the Kd was 138 nM, the koff came out at 0.00246 s⁻¹ and the kon was determined as 17800 M⁻¹ s⁻¹.
The like results for B7 were, in that order, 5.78 nM, 0.00253 s⁻¹ and 437000 M⁻¹ s⁻¹.
As to B8, the Kd stood at 6.52 nM, the koff is 0.00196 s⁻¹ and the kon is 301000 M⁻¹ s⁻¹.
With B9, the Kd came out at 4.28 nM, the koff was 0.00155 s⁻¹ and the kon was 362000 M⁻¹ s⁻¹.
The like results for B10 were, in that order, 321 nM, 0.00145 s⁻¹ and 4500 M⁻¹ s⁻¹.
B11: the Kd came to 144 nM, the dissociation rate constant (koff) is 0.00775 s⁻¹ and the kon came to 53700 M⁻¹ s⁻¹.
For the molecule B12, the Kd is 124 nM, the koff is 0.00341 s⁻¹ and the on-rate (kon) came out at 27500 M⁻¹ s⁻¹.
In the case of B13, the Kd was found to be 365 nM, the koff was 0.0168 s⁻¹ and the kon came to 46100 M⁻¹ s⁻¹.
Regarding B14, the Kd amounted to 4.88 nM, the off-rate (koff) amounted to 0.00216 s⁻¹ and the kon is 443000 M⁻¹ s⁻¹.
As to B15, the Kd worked out at 5.88 nM, the koff was determined as 0.00172 s⁻¹ and the kon was 293000 M⁻¹ s⁻¹.
B16: the Kd was 708 nM, the koff is 0.023 s⁻¹ and the kon came out at 32400 M⁻¹ s⁻¹.
Consider B17, for which the Kd came to 7.08 nM, the koff was found to be 0.0024 s⁻¹ and the kon was 339000 M⁻¹ s⁻¹.
As to B18, the Kd worked out at 7.33 nM, the koff was 0.0022 s⁻¹ and the kon is 300000 M⁻¹ s⁻¹.
For B19, in that order: 855 nM, 0.0165 s⁻¹ and 19300 M⁻¹ s⁻¹.
B20: the Kd was 1.34 nM, the koff was 0.000445 s⁻¹ and the kon amounted to 332000 M⁻¹ s⁻¹.
For the molecule B21, the Kd was 6.17 nM, the koff came out at 0.00148 s⁻¹ and the kon was determined as 241000 M⁻¹ s⁻¹.
For B22, in that order: 3.08 nM, 0.00142 s⁻¹ and 461000 M⁻¹ s⁻¹.
For B23, in that order: 5.47 nM, 0.00223 s⁻¹ and 408000 M⁻¹ s⁻¹.
